# Molecular target: PDGF receptors (alpha and beta sub-units)
substance,measurement,value
"PDGF-B (naturally occurring, full length; product of Comparative Example A) (ligand)",Mitogenesis ng/ml ([3H]thymidine uptake by Swiss 3T3 cells; activity read from the dose response curve of the PDGF-BB standard c-sis),308 ng/mL
